The source of these data is publication PMC3242763.

Sequences and labels used below:
B1: Natural full-length protein C inhibitor from human blood plasma (natural protein)
chain: EMKKRVEDLHVGATVAPSSRRDFTFDLYRALASAAPSQSIFFSPVSISMSLAMLSLGAGSSTKMQILEGLGLNLQKSSEKELHRGFQQLLQELNQPRDGFQLSLGNALFTDLVVDLQDTFVSAMKTLYLADTFPTNFRDSAGAMKQINDYVAKQTKGKIVDLLKNLDSNAVVIMVNYIFFKAKWETSFNHKGTQEQDFYVTSETVVRVPMMSREDQYHYLLDRNLSCRVVGVPYQGNATALFILPSEGKMQQVENGLSEKTLRKWLKMFKKRQLELYLPKFSIEGSYQLEKVLPSLGISNVFTSHADLSGISNHSNIQVSEMVHKAVVEVDESGTRAAAATGTIFTFRSARLNSQRLVFNRPFLMFIVDNNILFLGKVNRP
modifications: N-glycans at Asn-230, Asn-243 and Asn-319
B2: Neuraminic acid free full-length protein C inhibitor from human blood plasma (natural protein)
chain: B1 chain
modifications: N-glycans at Asn-230, Asn-243 and Asn-319, sialic acids removed with neuraminidase
B3: PNGase F-treated full-length protein C inhibitor from human blood plasma (natural protein)
chain: B1 chain
modifications: N-glycans removed with PNGase F

The target in this experiment is Prostate specific antigen used in the inhibition kinetics (human) (UniProt P07288).
Chain of UniProt P07288 (P07288 25-261): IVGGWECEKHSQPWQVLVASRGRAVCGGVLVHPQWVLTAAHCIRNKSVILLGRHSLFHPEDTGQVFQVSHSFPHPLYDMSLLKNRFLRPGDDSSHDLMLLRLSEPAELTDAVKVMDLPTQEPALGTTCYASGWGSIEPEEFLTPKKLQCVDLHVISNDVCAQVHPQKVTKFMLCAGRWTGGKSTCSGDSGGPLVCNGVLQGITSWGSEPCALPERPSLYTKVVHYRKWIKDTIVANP
Take “Neuraminic acid free, NH2-terminally cleaved protein C inhibitor from human blood plasma (natural protein)”: the second-order rate constant for PSA inhibition (discontinuous assay of residual PSA activity on a chromogenic substrate, 350 nM PSA, 10-fold excess of PCI, 25°C, pH 7.4) is 5.8 M^−1s^−1.

Turning to “PNGase F-treated protein C inhibitor from human blood plasma lacking the six NH2-terminal amino acids (natural protein)”, the second-order rate constant for PSA inhibition (discontinuous assay of residual PSA activity on a chromogenic substrate, 350 nM PSA, 10-fold excess of PCI, 25°C, pH 7.4) amounted to 29 M^−1s^−1.

Regarding “Protein C inhibitor from human blood plasma lacking the six NH2-terminal amino acids (natural protein)”, the second-order rate constant for PSA inhibition (discontinuous assay of residual PSA activity on a chromogenic substrate, 350 nM PSA, 10-fold excess of PCI, 25°C, pH 7.4) stood at 4.1 M^−1s^−1.

For B1, the second-order rate constant for PSA inhibition (discontinuous assay of residual PSA activity on a chromogenic substrate, 350 nM PSA, 10-fold excess of PCI, 25°C, pH 7.4) stood at 4.3 M^−1s^−1.

Regarding B2, the second-order rate constant for PSA inhibition (discontinuous assay of residual PSA activity on a chromogenic substrate, 350 nM PSA, 10-fold excess of PCI, 25°C, pH 7.4) is 5.2 M^−1s^−1.

Turning to B3, the second-order rate constant for PSA inhibition (discontinuous assay of residual PSA activity on a chromogenic substrate, 350 nM PSA, 10-fold excess of PCI, 25°C, pH 7.4) was found to be 4.8 M^−1s^−1.
